Reference: the RNAGym collection of RNA variant scans (doi:10.1073/pnas.2313332121)

B1: TPR t1 (parent)
chain: GACCAAUCUGCCCUCAGAGCUCGAGAACAUCUUCGGAUGCAGAGGAGGCAGGCUUCGGUGGCGCGAUAGCGCCAACGUCCUCAACCUCCAAUGCAUCCCACCACAUGAUGAUGCCUGAAGAGCCUUGGUUUUUUG

Variants of: B1
Assay: polymerase ribozyme fitness, log enrichment relative to wild type (log ratio); higher = more active; in vitro selection for triplet polymerase activity
Procedure, shortened: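 Genotype fitness is the logarithm of its enrichment divided by wild-type enrichment, using inverse-variance-weighted averages of replicates. That logarithm is base 2. Enrichment was measured by Illumina sequencing of input and output libraries from one triplicate in vitro selection round, with frozen incubation at −7 °C, on PCR-built, transcribed mutant libraries of each subunit of a heterodimeric triplet polymerase ribozyme, retaining genotypes with ≥10 input reads and ≥1 read per output.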

In order of falling “polymerase ribozyme fitness (log ratio)” value:
1. C12G C123U  1.34
2. C13A A16U G60U C88U A121G  1.33
3. C12U C13A G60C A121U  1
4. C12G G44U A90C A121U  0.668
5. C12U U54A  0.369
6. C12U G117U  0.316
7. C12G C64U  0.291
8. C12G C53A  0.285
9. C12U U132A  0.262
10. C12U U14G C79U  0.109
11. C12U A37U A111G C123A  -0.195
12. C12U G47U C73A C86G G122A  -0.298
13. C12G C20U C123U U125C  -0.31
14. C13G A43U C76U C123G  -0.345
15. C12U C64U C98U  -0.396
16. C12U C49A U96C  -0.405
17. C13A A95C G120A  -0.521
18. C12G U21A G71U U78A A121U  -0.676
19. C12G C72U U116A G120U  -0.787
20. C12A U78A  -1.37
21. C12U G61C  -1.48
22. C12U A43U C56G  -1.63
23. C12U G117C  -1.68
24. C12U G39C G127C U133A  -1.79
25. C12G C49G C70A C97U  -1.84
26. C12G U21C A29U C123U U131A  -1.87
27. C12U A29U G52C C73U  -1.91
28. C12G A26G  -1.93
29. C12A U81A  -1.96
30. C13A A50G G71A  -2.13
31. C13A C49U C53G U112C  -2.14
32. C12U A18U  -2.21
33. C13G A83U  -2.24
34. C12U C34A  -2.28
35. C13A G63C  -2.37
36. C12G A83U C104A U125G  -2.42
37. C13A A84G  -2.42
38. C12U C13G C20A A37G A46U G77A G120A  -2.45
39. C12U G47A C102A  -2.63
40. C13A C97U  -2.68
41. C12U G48A G51U C56A  -2.84
42. C12G U54C G61C  -2.85
43. C13A C114U  -2.86
44. C13A U21A A37C G93A  -2.9
45. C12U C13U C97A C123U C124A  -2.92
46. C13A C115U  -3.06
47. C12G C22G  -3.07
48. C13A G63U  -3.09
49. C13A A46U A74U  -3.21
50. C12G C40A A50C C80A A84C C104U  -3.24
51. C12G A26C G60U  -3.25
52. C13A C40A G93A A118U U129C  -3.28
53. C12U A18C A29G C82U U92A  -3.51
54. C13A C85U A100C  -3.76
55. C12U G23A G120A  -3.8
56. C12G A18C C80U U112G  -3.95
57. C13A A66U C101A  -4.3
58. C12U C22U U59C C85G  -4.46
59. C12G C13A G42C G69A G117C A118U U134G  -4.53
60. C13G A66U C79U C102A  -4.83
61. C12U C15G G71C G127C  -4.84
62. C12U C22A  -4.93
63. C13A C22U  -4.99
64. C13A C97A  -5.11
65. C13A G47A C64U G93U C101G U131A  -5.14
66. C13A A43C G93C  -5.21
67. C12G G45A G107U  -5.21
68. C12A U33G G48A A119G  -5.25
69. C13A C22A  -5.41
70. C12G C64G  -5.49
71. C13A G71A A74C G128A  -5.69
72. C13A U32C U109G G120C  -5.75
73. C12U C53G C97A  -5.8
74. C12G A50U G117C U125C  -6.32
75. C13A G63A G77U U106A C114A  -6.33
76. C13A A18G C49A C94U G117U  -6.43
77. C12U C49U G77A C97A C98A U109A A119U G127C  -6.68
78. C13A A103U A108U G117C U129A  -6.73
79. C12U G17C A29G C82A A90U A95C U106C G120A A121U  -6.75
80. C12G G19C G23C U59C G60U  -6.79
81. C12U U33G A105U U112G U125A  -7
82. C12U A41U A50U G57C C76G C99U  -7.02
83. C12G C22U U32G C102A A111U G122U  -7.04
84. C12U C13U G42U G51C U116G  -7.04
